The record followed here is the nanobody polyreactivity screen of Harvey et al. (2022).

A short description of this data set: yeast display, Sf9 membrane polyspecificity reagent, FACS + sequencing; frameworks hold sequencing errors. An outline of the steps: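 Galactose-induced (36–48 hours) yeast carrying a synthetic nanobody display library were exposed to 10% biotinylated, detergent-solubilized Sf9 membrane reagent at 4 °C for 1 hour. FACS followed streptavidin microbead enrichment, using low and high (top ~1%) gates for expression (anti-HA) and reagent binding (streptavidin). Colony PCR, MiSeq 2 × 250 sequencing and CDR-length filtering followed. Labels for polyreactivity reflect the gate of origin.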
“QVQLVESGGGLVQAGGSLRLSCAASGSIVRYYAMGWYRQAHGKEREFVAAISWSGGSTYYADSVKGRFTISRDNAKKTVYLQRNSLKPEDTAVFFCATTPGVWSTGGTNGFGYWGQGTQVTVSS”: the “polyreactivity (PSR sort gate)” value was “high polyreactivity”.
On to “QVQLVESGGGLVQAGGSLRLSCAASGFIFDTYAMGWYRQAPGKERELVAAISRSGVRTYYADSVKGRFTISRDNAKNTVYLQMNSLTPEDTAVYYCNAALNRYHFGRAVPGDYWGQGTQVTVSS”, for which the “polyreactivity (PSR sort gate)” value was “high polyreactivity”.
In the case of “QVQLVESGGGLVQAGGSLRLSCAACGRIFDRNAMGWYRQAPGKERELVAAITRSGGRTYYADSVKGRFTISRDNAKNSVYLQMNSLKPEDTAVYYCNRGYPRSVVHYNSWGQGTQVTVSS”, the “polyreactivity (PSR sort gate)” value is listed as “low polyreactivity”.
As for “QVQLVESGGRLVQAGGSLRLRCAASGYIFVYNAKGWYRQAPGKARELVAAITDGGGSTYADSVKGRFTISRDNAKNTVYLQMNSLKPEDTAVYYCAARYSDTTWYVLYYYWVQGTQVTVSS”, the entry is “low polyreactivity”.
With “QVQLVESGGGLVQAGGSLRLSCAASGFTFAYNAMGWYRQAPGKERELVATISWSGGSTYYADSVKGRFTISRDNAKNTVYLQMNSLKPEDTAVYYCATTIFYTYYGLYDYWGQGTQVTVSS” the entry was “high polyreactivity”.
As to “QVQLVESGGGIVQAGGTLRLSCAASGSTFKNKAMGCNRHAPGKETEFVAGITRRGTSTYYADSVKGRFTISLDNAKNSVYLQMNSLKPEDTSVYYCAARAWYPSRYDYWGQGTLVTVSS”, the “polyreactivity (PSR sort gate)” value is listed as “high polyreactivity”.
As for “QVQLVESGGGLVQAGGSLRLSCAASGHTFAYNAMGWYRQAPGKEREFVAAITWSTDNTYYADSVKGRFTISRDNAKNTVYLQMNTLKPEDTAVYYCAVDVYFYYRHYGYWGQGTQVTVSS”, the “polyreactivity (PSR sort gate)” value is on record as “low polyreactivity”.
As to “QVQLVESGGRLVQAGGSLRLSCAASGRTSGINAMGWYRQAPGKERELVAAISSGGRTYYADSVKGRFTISRDNAKNTVYLQMNSLKPEDTAVYYCAAVIHWSLYRRMEYWGQGTQVTVSS”, the “polyreactivity (PSR sort gate)” value is recorded as “high polyreactivity”.
For the sequence “QVQHVESVRGLVQAGGSLRLSCDASGIIFYSYAMGWYRQAPGKERELVARISTRGGSTYYADSVKGRFTISRDNAKNTVYLQMNSLKPEDTAVYYCAARYSRYIRFPYDYWGQGTQVTVSS”, the “polyreactivity (PSR sort gate)” value is on record as “high polyreactivity”.
As for “QDQLVESGGGLVQAGGSLRLSCAASGLIFARYAMGWYIQAPGKERELVAVISGRGGGTYYADSVKGRFTISRDNAKNTVYLQMNSLKPEDTAVYYCNKYGYKGGVGYDYWGQGTQVTVSS”, the entry is “high polyreactivity”.
With “QVQLVESGGGLVQAGGSLRLSCAASGSTFPAYAMGWYRQAPGKERELVAGISSGGRTYYADSVKGRFTISRDNAKNTVYLQMNSLKPEDTAVYYCAAFRFYWQRPDRYYYWGQGTQVTVSS”, the “polyreactivity (PSR sort gate)” value is “high polyreactivity”.
Consider “QVQLVESGGGLVQAGGSLRLSCAASGSIFTYYAMGWYRQAPGKERELVAAINSGGRTNYADSVKGRFTISRDNAKNTVYLQMNSLKPEDTAVYYCAKYGVLQYGYWGQGTQVTVSS”, for which the “polyreactivity (PSR sort gate)” value is listed as “low polyreactivity”.
Turning to “HVQRVESAGGLVQAGGSLRLSCADSGLIFRGNAMGWYRQAPGKVRELVATISYSGGSTYYADSVKGRFTISRENAKNTVYLQMNSLKPEDTAVYYCNRDPDPWGFQPDWYYGSYDYWGQGTQVTVSS”, the “polyreactivity (PSR sort gate)” value was “low polyreactivity”.
Turning to “QVQLVESGGGLLQAGGSLRLSCAASGFTFSYYAKGWYRQAPGKERELVAVISDRGGITYYADSVKGRFTISRDNAKNTVYLQMNSVKPEDTAVYYCAADLDSWYGYYYIVEYWGQGTQVTVSS”, the “polyreactivity (PSR sort gate)” value was “low polyreactivity”.
“QVQLVESGGGLVQAGGSLRLSCAASGFIFYFYAMGWYRQATGKEMELVAAISDGVSTYYADSVKGRFTISRDNAKNTVYLQMNCLKPEDTAVYYCAVSRGDDPEFDYWGQGTQVTVSS”: the “polyreactivity (PSR sort gate)” value is listed as “low polyreactivity”.
As for “QVQLVESGGGLVQAGGSLRLSCAASGSTFHRNSMGWYRQAPGKERELVASISIGGSTNYADSVKGRFTISRDNAKNTVYLQMNSLKPEDTAVYYCATEPNPRRPRVDYDYWGQGTQVTVSS”, the “polyreactivity (PSR sort gate)” value is “low polyreactivity”.
Take “QVQLVESGGGLVQAGGSLRLSCAASGSIFFTYVMGWYRQAPGKERELVAAISSDDNTNYADSVKGRFTISRDNAKNTVYLQMNSLKPEDTAVYYCNADTTLYPYYDYGYYDYDYWGQGTQVTVSS”: the “polyreactivity (PSR sort gate)” value is “low polyreactivity”.
“QVQLVETGGGLVQAGGSLRLSCAASGRTFVYNGMGWYRQAPGKERELVAAISGSGGSTYYADSVKGRFTISRDNAKNTVYLQMNSLKPEDTAVYYCATRQGYRLYYWGQGTQVTVSS”: the “polyreactivity (PSR sort gate)” value is “high polyreactivity”.
As for “QVQLVESGGGLVQAGGSLRLSCAASGSIFRGYAMGWYRPAPGKERELVAAISWSAGSTYYADSVKGRFTISRDNAKNTVYLQMNSLKPEDTAVYYCAARSPRRKGMDYWGQGTQVTVSS”, the “polyreactivity (PSR sort gate)” value is reported as “high polyreactivity”.
With “QVQLVESGGGLVQAGGSLRLSCAASGSTFYWNGMGWYRQAPGKERELVAAITKSGSRTYYADSVKGRFTISRDNAKNTVYLQMNSLKPEDTAVYYCAAVNYIYTGGGTYYYWGQGTQVTVSS”, the “polyreactivity (PSR sort gate)” value is given as “high polyreactivity”.
In the case of “QVQLVESGGGLVQAGGSLRLSCAASGSIFHRYAMGWYRQAPGKERELVAAISRRGGSTYYADSVKGRFTISRDNAKNTVYLQMNSLIPVDTAVYYCNASLAGSSGRNRFEYWGQGTQVTVSS”, the “polyreactivity (PSR sort gate)” value is reported as “high polyreactivity”.
As for “QVQLVESGGGLVQEGGSLRLSCAASGTFYRYAMGWYRQAPGKERELVAAISRSGGSTYYADSVKGRFTISRDNAKNTVYLQMNSLKPEDTAVYYCAAYSRSFYLASLYDYWGQGTQVTVSS”, the “polyreactivity (PSR sort gate)” value is listed as “high polyreactivity”.
Consider “QVQLLESGGGLVQAGGSLRFSCAASGFTFPVYAMGWYRQAHGKEREFVAAISWSGGSTSYADSVKGRFTSSRDNAKNTVYLQMNSLKPEDTAVYYCAAEHEQYTQLDYWGQGTQVTVAS”, for which the “polyreactivity (PSR sort gate)” value was “high polyreactivity”.
Turning to “QVQLVESGGGLVQAGGSLRLSCAASGVTFRLDAMGCYRQAPGKDRELVAAISRSGTSTYYADSVKGRFTISRDNPKNTVYLHMNTRKPDDTAVYYCNTARYRYAWYTRYVSWGQGTQVTVSS”, the “polyreactivity (PSR sort gate)” value is “high polyreactivity”.
“QVQRVESGGGLVQAGGSLRLSCAASGITFSRYAMGWYRPAPGKERELVAAISRSGTRTYYADSVKGRFTISRDNAKNTVYLQMNSLKPEDSAVYYCAAESFASSFDYWGQGTQVTVSS”: the “polyreactivity (PSR sort gate)” value was “high polyreactivity”.
With “QVQLVESGGGLVQAGGSLRLSCAASGRTFVPYAMGWYRQAPGKERELVAAINSGGSTYYADSVKGRFTISRDNAKNTVYLQMNSLKPEDTAVYYCAAEYWNSRFSYAYGYWGQGTQVTVSS” the entry was “high polyreactivity”.
In the case of “QVQLVESGGGLVQAGGSLRLSCAASGNTFNVYAMGWYRQAPGKERELVAAITLSGGSTYYADSVKGRFTISRDNAKNTVYLQMNSLKPEDTAVYYCNAEEVGTDYDYWGQGTQVTVSS”, the “polyreactivity (PSR sort gate)” value was “low polyreactivity”.
For the sequence “QVQLVESGGGLVQAGGSLRLSCAASGYIFRYYAMGWYRQAPGKERELVAAISWNGGRTYYADSVKGRFTISRDNAKNTVYLQMNSLKPEDTAVYYCAARYWGDYFTEMNYWGQGTQVTVSS”, the “polyreactivity (PSR sort gate)” value is “high polyreactivity”.
Regarding “QVQLVESGGGLVQAGGSLRLSCAASGFTFQRYAKGWYRQAPGKERDLVAAITRNGGSTYYADSVKGRFTISRDNAKNTVYLQMNSLKPDDTAVYYCNAEWFQFYWYPHYKVTRYEYWGQVTQVTVSS”, the “polyreactivity (PSR sort gate)” value is reported as “high polyreactivity”.
Regarding “QVQLVVSGGGLVQAGGSLRLRCAASGRTIWPYAMGWYRQAPRKESEFDAAITWTVGRTYYADSVKGRFTISRDNAKNTVYLQMNSLKPDDTAVYYCNARSYSQTLFGYPDDYWGQGTQVTVSS”, the “polyreactivity (PSR sort gate)” value is given as “high polyreactivity”.
Turning to “QVQLVESGGGLVQAGGSLRLSCAASGLTFRYYAMGWYRQAPGKERELVAAITRRGSTYYADSVKGRFTISRDNAKNSVYLQMNSLKPEDTAVYYGATVTGFHSSPLRDLDYWGQGTQVTVSS”, the “polyreactivity (PSR sort gate)” value is “high polyreactivity”.
Consider “QVQLVESGGGLVQAGGSLRLSCAASGSTFEDYVMGWYRQAPGKERELVAAITSGDNTKYADSVKGRFTISRDNAKNTVYLQMNSLKPEDTAVYYCNADFPDVRSEYDYWGQGTQVTVSS”, for which the “polyreactivity (PSR sort gate)” value was “high polyreactivity”.
Consider “QVQLVASGGGLVQARGSLRLSCAASGRTFTYYAMGWYRQAPGKESELVAAISDSGGSTYYADSVKGRFTISRDNAKNTVYVQMNSLKPEDTAVYYCAAYRYVGPWTDVGSPDYDDWGQGTQVTVSS”, for which the “polyreactivity (PSR sort gate)” value is given as “low polyreactivity”.
With “QVQLVDSGGGLVQAGGSLRLSCDASGSTFRGYAMGWYRKAPGKERELVAAISSRGARTHYADSLKGRFTISRDNAKNNVYLQMNSLKPEDTAVYYCNKRQVFFSTGEYEFDYWGQGTQVTVSS” the entry was “low polyreactivity”; with “QVQLVESCGGLVQAGGSLRLSCAASGRTFVTYAMGWYRQAPGKERELVAAISASGGSTYYADSVKGRFTISRDNAKNTVYFQMNSLKPEDTAVYYCAKTYFLATPYGYWGQGTQVTVSS”, “low polyreactivity”; with “QVKLVESGGGIVQAGGSLRLSCAASGRTFGRNAMGWYRQAPGKERELVASITKRGGSTYYADSVKGRFTISRDNAKDTVYLQMNSLKPEDTAVYYCAVEAYDYWGQGTQVTVSS”, “high polyreactivity”.
Regarding “QVQLVESGGGLVQAGGSLRLSCAASGSTFVYNAMGWYRQAPGKERELVAAISRRGGSTYYADSVKGRFTISRDNAKNTVYLQMNSLKPEDTAVYYCATDRVQDSYYWGQGTQVTVSS”, the “polyreactivity (PSR sort gate)” value is on record as “high polyreactivity”.
Consider “QVQLVESGVGLVQAGGSLRLSSDASGSIFGTYAMGWYRQAPGKERELVAAITGNGGRTYYADSVKGRFTISRDNAKNTVYLQMHSLKAEDTAVYSCAISSSRGGFYYWGQGNQVTVSS”, for which the “polyreactivity (PSR sort gate)” value was “high polyreactivity”.
As for “QVQLVESGGGLVQAGGSLRLSCAASGRTFAFYTLGWYRQAPGKERELVAAITRNGSTSYADSVKGRFTISRDNAKNTVFLQMNRLKPEDTAVYYCATVGYPYTLWHQMDYWGQGTQVTVSS”, the entry is “low polyreactivity”; as for “QVQLVESGGGLVQAGGSLRLSCAASGNIFTRNAMGWYRQAPGKVRELVASITRGGSTYADSVKGLFTISRDNAKNTVYLQMNSLKPEDTAVYYCAASCYYSSHMDYWGQGTQVTVSS”, “high polyreactivity”.
Consider “QVQLVESGGGLVQAGGSLRLSCAASGRTFTVYAMGWYRQAPGKEREFVAAITERGGSTYYADSVKGRFTISRDNAKNTVYLQMNSLKPEDTAVYYCAAVYYWRPGWYVRFDYWGQGTQVTVSS”, for which the “polyreactivity (PSR sort gate)” value is “low polyreactivity”.
